Source: PMC8530329 (PLoS Pathogens, 2021)

Target: T1, SARS-CoV-2 S_(fm2P) (SARS-CoV-2, original (reference) …, 682RRAR685 → 682GSAG685 | 986KV987 → 986PP987)
T1 construct: also called ectodomain of the SARS-CoV-2 S protein; SARS-CoV-2 S protein
Experiment: cryo-EM structure
Details: both partners purified

| Binder | stoichiometry N |
| --- | --- |
| RBD-chAb-45 (antibody, V domains shown, also called S-chAb-45 (in complex with S); source: Expi-293 cells, co-transfected, purified (protein G column)) VH: EVQLQQSGPELVKPGASVKISCKTSGYTFTEYTIYWVKQSLGKSLEWIGGNNPNNDDTTYKQFFKGKATLTVDKSSSTAYMELRSLTSEDSAVYYCARDGYPYYYALDFWGQGTSVTVSS VL: DIVMTQSQKFMSTSVGDRVSVTCKSSQNVGTNVAWYQQKPGQSPKALIYSASYRYSGVPDHFTGSGSGTDFTLTISNVQSADLAEYFCQQYNNYPWTFGGGTKLEIK | 3 chAb (Fab) per S trimer |
| RBD-chAb-25 (antibody, V domains shown, also called S-chAb-25 (in complex with S); source: Expi-293 cells, co-transfected, purified (protein G column)) VH: EVQLEESGGGLVKPGGSLKLSCAASGFTFSSYTMSWVRQSPEKRLEWVAEISSGGTYTNYPDTATGRFTISRDNAKNTLYLEMSSLRSEDTAMYYCANFGNYEEIAYWGQGTLVTVSA VL: QIVLTQSPAIMSVSLGERVTMTCTASSSVSSSYLHWYQQKPGSSPKLWIYSTSNLASGVPARFSGSGSGTSYSLTISSMEAEDAATYYCHQYHRSPYTFGGGTKLEIK | 3 chAb (Fab) per S trimer |
